In patent publication US20090075925A1, “Methods and Compositions Related to APOBEC-1 Expression” (priority 2006, published 2009):

B1: ACF64: 64 kDa ACF variant, SEQ ID NO:1 (protein)
chain: MESNHKSGDGLSGTQKEAALRALVQRTGYSLVQENGQRKYGGPPPGWDAAPPERGCEIFIGKLPRDLFEDELIPLCEKIGKIYEMRMMMDFNGNNRGYAFVTFSNKVEAKNAIKQLNNYEIRNGRLLGVCASVDNCRLFVGGIPKTKKREEILSEMKKVTNEGVVDVIVYPSAADKTKNRGFAFVEYESHRTAAMARRKLLPGRIQLWGHGIAVDWAEPEVEVDEDTMSSVKILYVRNLMLSTSEEMIEKEFNNIKPGAVERVKKIRDYAFVHFSNRKDAVEAMKALNGKVLDGSPIEVTLAKPVDKDSYVRYTRGTGGRGTMLQGEYTYSLGQVYDPTTTYLGAPVFYAPQTYAAIPSLHFPATKGHLSNRAIIRAPSVRGAAGVRGLGGRGYLAYTGLGRGYQVKGDKREDKLYDILPGMELTPMNPVTLKPQGIKLAPQILEEICQKNNWGQPVYQLHSAIGQDQRQLFLYKITIPALASQNPAIHPFTPPKLSAFVDEAKTYAAENYTLQTLGIPTDGGDGTMATAAAAATAFPGYAVPNATAPVSAAQLKQAVTLGQDLAAYTNTYEVYPTFAVTARGDGYGTF
B2: S154D: ACF64 with serine 154 to aspartic acid substitution (protein)
chain: MESNHKSGDGLSGTQKEAALRALVQRTGYSLVQENGQRKYGGPPPGWDTTPPERGCEIFIGKLPRDLFEDELIPLCEKIGKIYEMRMMMDFNGNNRGYAFVTFSNKQEAKNAIKQLNNYEIRNGRLLGVCASVDNCRLFVGGIPKTKKREEILDEMKKVTEGVVDVIVYPSAADKTKNRGFAFVEYESHRAAAMARRRLLPGRIQLWGHPIAVDWAEPEVEVDEDTMSSVKILYVRNLMLSTSEEMIEKEFNSIKPGAVERVKKIRDYAFVHFSNREDAVEAMKALNGKVLDGSPIEVTLAKPVDKDSYVRYTRGTGGRNTMLQEYTYPLSHVYDPTTTYLGAPVFYTPQAYAAIPSLHFPATKGHLSNRALIRTPSVRGAAGVRGLGGRGYLAYTGLGRGYQVKGDKRQDKLYDLLPGMELTPMNTISLKPQGVKLAPQILEEICQKNNWGQPVYQLHSAIGQDQRQLFLYKVTIPALASQNPAIHPFTPPKLSAYVDEAKRYAAEHTLQTLGIPTEGGDAGTTAPTATSATVFPGYAVPSATAPVSTAQLKQAVTLGQDLAAYTTYEVYPTFAVTTRGDGYGTF
B3: ACF43: 43 kDa ACF variant, SEQ ID NO:19 (protein)
chain: MESNHKSGDGLSGTQKEAALRALVQRTGYSLVQENGQRKYGGPPPGWDAAPPERGCEIFIGKLPRDLFEDELIPLCEKIGKIYEMRMMMDFNGNNRGYAFVTFSNKVEAKNAIKQLNNYEIRNGRLLGVCASVDNCRLFVGGIPKTKKREEILSEMKKVTEGVVDVIVYPSAADKTKNRGFAFVEYESHRAAAMARRKLLPGRIQLWGHGIAVDWAEPEVEVDEDTMSSVKILYVRNLMLSTSEEMIEKEFNNIKPGAVERVKKIRDYAFVHFSNRKDAVEAMKALNGKVLDGSPIEVTLAKPVDKDSYVRYTRGTGGRGTMLQGEYTYSLGQVYDPTTTYLGAPVFYAPQTYAAIPSLHFPATKGHLSNRAIIRAPSVRGAAGVRGLGGRGYLAYTGLGRGYQVKGDKREDKLYDILPGMELTPMNPVTLKPQGIKLAPQILEEICQKNNWGQPVYQLHSAIGQDQRQLFLYKITIPALASQNPAIHPFTPPKLSAFVDEAKTYAAEYTLQTLGIPTDGGDGTMATAAAAATAFPGYAVPNATAPVSAAQLKQAVTLGQDLAAYTTYEVYPTFAVTARGDGYGTF
B4: ACF45: 45 kDa ACF variant, SEQ ID NO:18 (protein)
chain: B3 chain

Assays:
apoB mRNA editing [1] = assay: apoB mRNA editing in McArdle cells (ethanol, ACF wild type, mutants and isoforms); assay type: cell-based, rat; details: for effect of isoform expression on editing: HA-tagged, transfected McArdle cells
Method: McArdle RH7777 cells (ATCC Manassas, Va.) stably expressing HA epitope-tagged APOBEC-1 (Yang et al. J Biol Chem 272:27700-6 (1997)) were treated for 4 hours with 0.9% ethanol and fractionated into nuclear extracts (Van Mater et al. (1998)).
To calibrate the system cells were incubated in the presence of ethanol for 4 hours and the amount of edited apoB mRNA determined.
The overall expression and subcellular localization of epitope tagged ACF isoforms is established by western blotting of nuclear and cytoplasmic extracts (prepared using NE-PER system; Pierce). These biochemical studies are complemented by immunofluorescence microscopy of paraformaldehyde fixed cells reacted with epitope tag or ACF isoform-specific antibodies. In pilot experiments varying levels of HA-tagged ACF43 and ACF45 were expressed by transfecting differing amounts of cDNA into McArdle or McAPOBEC cells (FIGS. 35A & C, western blots). […] The above transient transfection scenarios can be recapitulated in ethanol treated cells to evaluate the affect of ACF isoform abundance on cells ability to respond to metabolic perturbation. […] ACF expression levels, subcellular localization and editing activity are determined from replicate experiments and the relative affects of overexpressing each isoform compared in the absence (negative control) or presence of ethanol and to the response seen in wild type cells (positive control).

apoB mRNA editing [2] = assay: apoB mRNA editing in McAPOBEC cells transfected with ACF isoforms; assay type: cell-based, rat; details: HA-tagged
Source text: The overall expression and subcellular localization of epitope tagged ACF isoforms is established by western blotting of nuclear and cytoplasmic extracts (prepared using NE-PER system; Pierce). These biochemical studies are complemented by immunofluorescence microscopy of paraformaldehyde fixed cells reacted with epitope tag or ACF isoform-specific antibodies. In pilot experiments varying levels of HA-tagged ACF43 and ACF45 were expressed by transfecting differing amounts of cDNA into McArdle or McAPOBEC cells (FIGS. 35A & C, western blots). The level of exogenously expressed HA-tagged APOBEC-1 in McAPOBEC cells was high and unaffected by ACF isoform expression (FIG. 35C). Sufficient endogenous ACF was expressed in McAPOBEC cells to support 61% editing (FIG. 35D, poisoned primer extension) given the level of APOBEC-1 overexpression (FIG. 35C). […] ACF43's facilitation of ACF64/65 binding to apoB mRNA enhanced editing activity only when APOBEC-1 abundance was not rate limiting (analogous to FIG. 34, insulin). […] ACF expression levels, subcellular localization and editing activity are determined from replicate experiments and the relative affects of overexpressing each isoform compared in the absence (negative control) or presence of ethanol and to the response seen in wild type cells (positive control).

| Molecule | stimulation of editing by stable ectopic expression compared to untransfected McArdle cells (apoB mRNA editing [1]; stable cell line) [%] | further stimulation of editing on addition of ethanol (apoB mRNA editing [1]; stable cell line, ethanol) [fold] | enhancement of editing (apoB mRNA editing [1]; stable McArdle cell line) [%] | effect of isoform expression on editing (61% editing without) (apoB mRNA editing [2]) | effect of isoform expression on editing (apoB mRNA editing [1]) |
| --- | --- | --- | --- | --- | --- |
| B1 | 19 | 3 |  |  |  |
| B2 |  |  | 67 |  |  |
| B3 |  |  |  | stimulated editing activity | did not affect editing |
| B4 |  |  |  | had no affect | inhibited editing over two-fold |
